This note sets out measurements from US12091446 (NATIONAL TECHNOLOGY AND ENGINEERING SOLUTIONS OF SANDIA, dated 2024).

Read-outs that look alike come from different tables or passages of the source.

In assay [1] the target is T1, SARS-COV-2 spike, Wuhan (original) (SARS-COV-2, UniProt P0DTC2 14-1273). Description: cell-based or functional assay.
The target in assay [2] is T1, SARS-COV-2 spike, Wuhan (original). Description: cell-based or functional assay. This is another data set of the same source.

B1: AP1D4 Nb-huFc (Fc fusion)
chain: EVQLQASGGGFVQPGGSLRLSCAASGHTFDAHRMGWFRQAPGKEREFVSAISSWGQSSTYYADSVKGRFTISRDNSKNTVYLQMNSLRAEDTATYYCAQTDEGNQYVYWGQGTQVTVSS
In the case of B1, the “EC50, neutralization of spike pseudotyped virus” value (from here on “EC50, neutralization”) in assay [1] came to 6.62 nM.

B2: KP1B5 Nb-huFc (Fc fusion)
chain: EVQLQASGGGFVQPGGSLRLSCAASGFTFDWSAMGWFRQAPGKEREFVSAISSSTSESTTYADSVKGRFTISRDNSKNTVYLQMNSLRAEDTATYYCATYYGGKTVEQDFYWGQGTQVTVSS
With B2, the “EC50, neutralization” value in assay [2] amounted to 896 nM.

B3: KP1C9 Nb-huFc (Fc fusion)
chain: EVQLQASGGGFVQPGGSLRLSCAASGRTFDAYSMGWFRQAPGKEREFVSAISSWSDDWTAYADSVKGRFTISRDNSKNTVYLQMNSLRAEDTATYYCALQNTKEDRLYWGQGTQVTVSS
B3: the “EC50, neutralization” value in assay [2] was determined as 2.89 nM.

B4: AP1C3 Nb-huFc (Fc fusion)
chain: EVQLQASGGGFVQPGGSLRLSCAASGRTYRGYSMGWFRQAPGKEREFVSAISSWSDDWTAYADSVKGRFTISRDNSKNTVYLQMNSLRAEDTATYYCAWQYIDEIQYYWGQGTQVTVSS
Consider B4, for which the “EC50, neutralization” value in assay [1] is 1.04 nM.

B5: KP2C6 Nb-huFc (Fc fusion)
chain: EVQLQASGGGFVQPGGSLRLSCAASGRTFTSFHMGWFRQAPGKEREFVSAISSGDDGTQYYADSVKGRFTISRDNSKNTVYLQMNSLRAEDTATYYCAAYTTTTVPQYWGQGTQVTVSS
B5: the “EC50, neutralization” value in assay [2] stood at 517 nM.

B6: AP1B6 Nb-huFc (Fc fusion)
chain: EVQLQASGGGFVQPGGSLRLSCAASGSAFQIYAMGWFRQAPGKEREFVSAISSTDSETDHYADSVKGRFTISRDNSKNTVYLQMNSLRAEDTATYYCAVNGFDYAHSKAGPQVYWGQGTQVTVSS
In the case of B6, the “EC50, neutralization” value in assay [1] came out at 3.32 nM.

B7: BP1B1 Nb-huFc (Fc fusion)
chain: EVQLQASGGGFVQPGGSLRLSCAASGRTFSGYIMGWFRQAPGKEREFVSAISQGDSYASYYADSVKGRFTISRDNSKNTVYLQMNSLRAEDTATYYCALYDINTVPYYWGQGTQVTVSS
In the case of B7, the “EC50, neutralization” value in assay [2] was found to be 4.13 nM.

B8: BP1A10 Nb-huFc (Fc fusion)
chain: EVQLQASGGGFVQPGGSLRLSCAASGQPSDRYIMGWFRQAPGKEREFVSAISQGAANKTAYADSVKGRFTISRDNSKNTVYLQMNSLRAEDTATYYCATHFNWQNYSYWGQGTQVTVSS
Regarding B8, the “EC50, neutralization” value in assay [1] was 8.38 nM.

B9: BP2A3 Nb-huFc (Fc fusion)
chain: EVQLQASGGGFVQPGGSLRLSCAASGRTFSAYSMGWFRQAPGKEREFVSAISAGDGAASYYADSVKGRFTISRDNSKNTVYLQMNSLRAEDTATYYCAHYYTTSATLDYAYWGQGTQVTVSS
As for B9, the “EC50, neutralization” value in assay [2] was 58.5 nM.

B10: AP1A5 Nb-huFc (Fc fusion)
chain: EVQLQASGGGFVQPGGSLRLSCAASGSTASHYTMGWFRQAPGKEREFVSAISSGRDHAKQYADSVKGRFTISRDNSKNTVYLQMNSLRAEDTATYYCAYEEINATQKDTLYWGQGTQVTVSS
For B10, the “EC50, neutralization” value in assay [1] worked out at 11.9 nM.

B11: BP2A6 Nb-huFc (Fc fusion)
chain: EVQLQASGGGFVQPGGSLRLSCAASGQTFSHYIMGWFRQAPGKEREFVSAISAGQGHATYYADSVKGRFTISRDNSKNTVYLQMNSLRAEDTATYYCAKYQDTIAPLYWGQGTQVTVSS
Regarding B11, in assay [1], the “EC50, neutralization” value was 0.77 nM.

B12: DP4F2 Nb-huFc (Fc fusion)
chain: EVQLQASGGGFVQPGGSLRLSCAASGTTYSERVMGWFRQAPGKEREFVSAISSGQSDQTYYYADSVKGRFTISRDNSKNTVYLQMNSLRAEDTATYYCAPFAGDANLPREWYWGQGTQVTVSSA
With B12, the “EC50, neutralization” value in assay [2] was found to be 65.8 nM.
